Reference: patent US10556936B2, “Immunogenic proteins and fragments thereof from allergenic mites” (ALK-ABELLÓ A/S, priority 2016, dated 2020)
Marks after values point to notes of the source that are not given here.

B1: 31 (protein, listed as Dermatophagoides pteronyssinus)
chain: MAKFNYLPVDVQEELRNTANAIVSVGKGILAADESTGTIGKRFADINVENVEQNRQAYRQLLFYSEGIEQYISGVILFDETVYQKDDKGVPFPELLKKKGIIPGIKVDTGVVTLQGTNGESTTQGLDNLTKRCQEYYNQGCRFAKWRCVLKIGQDEPSSLAIVENANVLARYASCCQQARIVPIVEPEILPDGDHNLERCQKVTETVLAAVYKALNDHHVYLEGTLLKPNMVTPGQSCPQKASPQEVAQATVTALQRTVPAAVPGIVFLSGGQSEEEASVNLNAINQYQGKKPWALSFSYGRALQASALRAWQGKPENIGAGQKELLQRAKANVLAHKGQYVAGSIPSLASAKSNFVAQHKY
B2: 29 (protein, listed as Dermatophagoides pteronyssinus)
chain: MVKIGINGFGRIGRLVLRAAIKKGVEVAAINDPFLDVKYMVYMFKFDSTHGRYQGEVKEEGGLLVVDGQKIQVFQERNPAEIPWGKVGADYVVESTGVFTTIEKAKAHLAGGAKKVIISAPSADAPMYVMGVNHDKYDPKQQIISNASCTTNCLAPLAKVINDKFGIENGLMTTVHAITATQKTVDGPSGKLWRDGRGAGQNIIPASTGAAKAVGKVIPELNGKLTGMALRVPVPDVSVVDLTVTLKNPASYDEIKAAVKAAAESDHWKGILEYTDEEVVSSDFISDTHSSIFDAKAGIALTPTFVKLIAWYDNEFGYSNRVVDLIKYVASK
B3: 25 (protein, listed as Dermatophagoides pteronyssinus)
chain: MSSSSGKKYDFSGKVALVTGSSSGIGAAIALQFAQYGAQVTITGRDAAALESVAKRIEAESGHQPLQIVGNLLDQSLPAKLIDGTISKYGRLDFLVNNAGFSTQHRDIHDEKLMEAFDQVYGLNVRAVVQLSQLAATHLEKSKGNIINISSNLSMMPVHIIYSSSKAALDMITKTMAMEFGKKGVRVNSINPGPVATQFMRSLGMPVTFLKENEEFVKELTLLKFVAQPVEIANLASFLASDDARNMTGSIVVNDTGSLLAPRVDFKKLDEIKKK
B4: 3 (protein, listed as Dermatophagoides pteronyssinus)
chain: MAIDGKYQMESSEHFEEFVKEMGLDVDMTNVDLSKTSTMEICKDGDVYHIKSETAGIAHEIKFKVGEEFEDDMNGHKFKNVVTMECDNKMVQKKTSADGGKVVNVVREFTDAGCTVKSTYNTVTWTRVYKRM
B5: 38 (protein, listed as Dermatophagoides farinae)
chain: QSRDRNDKPYRIVCYWGTWAFYRPASGKFQAENVNPNLCTHIMYGFAKLQNNKIALYDPDLDDGDEDWNSGLQWGHGMIRRMVNLRTYNPHLTTMISLGGWNEGSDKYSIMVRDPASRKIFIQSVLHLLAEFDLDGLDFDWEYPAMQASGDSDRKPGRAEDKEDFVTLLRELHEAFQPHGYVLSSAVSAGKPTIDRAYNIPEVSKYLDFINLMSYDYHGGWESHTGHNAPLNSYKNANELDKEFTVTYSVEYWLNHGVDPKKLVLGIPLYGRTFTLAGSEHGIGAPTIGKGGESGTITRTIGMLGYNEICTMIKQGWQLYRDEIERIPYAVHANQWIGYDDRESVNEKLNLLMAKHLGGAMVWSIDTDDFVGNCVGVKYPLLRSISKKLNNVDGPDPDIKRYHYHTSTAKPHTDGTTSTHHDHKTTTTKHHKTTQPHHKTTQPHHTQTITTTTERPHGKFQCHQAGFFADPENPRKFHQCVDFGGHLKDYEFMCGEGTHYDEKLHICVR
B6: 40 (protein, listed as Dermatophagoides pteronyssinus)
chain: KSAPEGCFRAAVLDHVHQTDARHLSNTAKIIDLNFKVYEDAAALAKKQGADIIVFPENGLIYSILSREKADEFASDIPDAEVNACTLDSKFVYNRLACLAQKHQMFVVADLIDRKSCEELGINNVSDSCPADKKFLFNTAVLFDRQGKLLGRYHKMHLFGEISMNPPPKPELLVIDTELGRLGMQICFDMIFKTPGYLLAQENKFDTMLFPTWWFDESPMLSSSQYQMAWAFGNNVTLLASNIHRIEVGSRGSGIYVGPHRTLAAALYDDSVERLVLANVPIKPKETDQSACPLDSEIIEVPQQIPIPKSVKYHHQNLNLKDVTLLQLSSNESEVHLCHKGVCCQFEYRLAMKDQPQESWVDRVPLLANMLHYLTPEERYYLLIANRTRPGAYPWSEEFCAVVVCPSSRWNFGKMQKDCSKIGSNQELSSRFVHAKLRGKFSEDTAVYPSAVGSKNQLIYPENKWKFWKVNVPNEPEYFIELGAKDNSESRAMELGALVLYGRNYNRDPRYEQKALPIN
B7: 6 (protein, listed as Dermatophagoides pteronyssinus)
chain: MVKAVVVLKGDPNVSGTIFFEQQDNGPVKVTGSVQGLKPGLHGFHVHEFGDNTNGCTSAGAHYNPLNKTHGAPNDEERHVGDLGNIEANDKGVANVVIEDSLISLTGEKSIVGRSLVVHADPDDLGRGGHELSKTTGNAGGRLVCGVIGVTK
B8: 13 (protein, listed as Dermatophagoides farinae)
chain: KKTKDCDVEKPIRECLKNGLLRYSDGQKINQFPDSIEDLNRACEELKKSETCARNFIDTCTETSYEKRSLDSLLDGIQRVLKRLCRSQSKKEQLLQNVGCANSVVQDTKLCLKNYRMLVFAANKLNDKSKIMRILCCKSRKVAPCIGEAMKSKGNAVCSAKNIDYFREMHQNIKAEMTAVVCSDFERDQCENVEVPAITEAEYKDQNIFNPLRDLYKKVILA
B9: 33 (protein, listed as Dermatophagoides pteronyssinus)
chain: IEQVHIALGSNETEIIVTWTEPHKHDDKTSDAVVYYGQAKSSFDQKVKAISEYFKDDKTKYTTYRALLTGLLPGTEYHYRIQMDDLESSIFEFKTLKTGEENWLPRFAIYGDLGYVNEQSLPYLKKDVEQNLFDVIFHIGDFAYDLNDEHGKVGHHFMRSIEPVASKVAYMTCPGNHERHDNFSHYDSRFSMIGDRSQPIHSDKLNKRLNNHFHSMTIGPATIILFSTEYYYYTKYGWQQIEHQYRWLEQELKRANENRQKHPWIIVMGHRPLYCLKMGDDSCDHQTMERKEIRQGIRMHDEGERQYGLEDLFFKYGVDIQFYGHEHFYARLFPIYKYKMYNGTKSKNPYDHPGAPIHITTGSAGNKELHPEFNHLNDWVAEHFYDYGYTRLMFEDKYRIRLQQISDDQHGKVLDEIEIVKSSPQPHWMNVEHH
B10: 37 (protein, listed as Dermatophagoides pteronyssinus)
chain: DTPANCTYEDIKGLWLFEETEPIKDRWEKCPEHQQQREKYSKKIFIRLDFPNVAVDKFGNIGEWTMIYNQGFEVKINYRKYFAFSAYERKSENNVLSYCHKTQPGWSHDVLGNNWACYVGHKVNNWNDDDVSKTTTVGAEKFPVKQHSERELYLQNINVEHILSQKHIDHLNSQQKSWKAIVYPDLQSKSIEHLIQMAGGRKSRIINRPKPLRATEQQKQLARSLPESFDWRNLNGIDYVSPVRDQGKCGSCYTFASMAMLESRIRIQTNNTFKPIFSTQEVVDCSEYSQGCDGGFSYLIAGKYAQDFGVIDESCYPYKGVTGKCQNQQNFNQTNEKCKQRTYTIDYKYVGGYFGACNEEAMQIELVQNGPIAVGFEVYGDFFGYSEGIYSHQPSNESNDQHQQIKAEFNPFEMTNHAVLIVGYGKDKKTGEKYWIVKNSWGKQWGMDGYFWMRRGTDECAIESLAMAATPIPN

system: basophils in whole blood from HDM allergic donors; assay: Basophil Activation Test (BAT); format: cell-based, human; conditions: responding donors of tested HDM allergic donors; whole blood stimulated 1 h
Summary of the method: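 Basophil activation was read by flow cytometry as increased surface activation markers. The stimulus was a 1 h exposure of blood from 14 HDM-allergic donors to test proteins or major mite allergens at graded concentrations (e.g. 1–1000 ng/ml).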

Molecule	% responding donors in BAT Assay
B1	0 of 8
B2	1 of 8*
B3	1 of 8*
B4	0 of 16
B5	0 of 8
B6	0 of 8
B7	1 of 8*
B8	0 of 16
B9	1 of 8*
B10	0 of 8

system: HDM specific T-cell lines from HDM allergic donors; assay: T cell reactivity of protein: IL-5/IFNg FluoroSPOT or 72 h T cell proliferation in HDM specific T-cell lines (Example 2); format: cell-based, human; conditions: responding donors of tested HDM allergic donors
Text: PBMCs from European HDM-allergic individuals were recruited in the Copenhagen region (defined by clinical history of allergy to house dust mite and specific IgE to group 1 and group 2 major allergens from Der p and/or Der f and with measured specific IgE (CAP) >0.7 kU/L towards Der p/f 1 or Der p/f 2. In addition, PBMCs from 10 US HDM-allergic individuals were recruited in San Diego (defined by Der p extract IgE titers greater than 0.35 kUA/L). PBMCs were isolated from whole blood by density gradient centrifugation according to manufacturers' instructions (Ficoll-Hypaque, Amersham Biosciences, Uppsala, Sweden). Der p- and Der f-specific extract IgE titers were determined using the ImmunoCAP system (Thermo Fisher, Uppsala, Sweden). In a separate series of experiments, pooled plasma from 10 European and 10 American HDM atopic individuals from the San Diego region, respectively, was utilized to run 2D immunoblots to elucidate IgE and IgG reactivity towards the proteins, which had at least one peptide with positive T cell response.
T cells reactivity was determined by establishment of HDM specific T-cell lines according to standard methods. In short, PMBCs from HDM allergic donors were cultured for 2-3 weeks in the presence of house dust mite allergen extract. The responses to proteins having SEQ ID NOs 1-44 were assessed by IL-5/IFNg FluoroSPOT (Mabtech FS-0108-10) according manufacturer protocol, (after 2 weeks) or proliferation in a standard 72 h T cell proliferation assay, as described in Henmar H et al., Clin Exp Immunol 2008; 153(3):316-23. (after 3 weeks). In addition these established T cell lines were used for further characterization and epitope mapping.

Molecule	% T cell responding donors to protein
B1	6 of 27
B2	2 of 27
B3	3 of 26
B4	1 of 29
B5	11 of 27
B6	15 of 27
B7	0 of 27
B8	6 of 29
B9	10 of 27
B10	4 of 27
